Test results from publication PMC8750365.

Columns and labels:
[1] = molecular target: Endogenous TOP2A of U2OS cells (human (endogenous in U2OS)) (UniProt P11388); assay: proximity ligation
[2] = molecular target: Endogenous TOP1 of U2OS cells (human (endogenous in U2OS)) (UniProt P11387); assay: proximity ligation
Chain of UniProt P11387 (P11387 whole entry): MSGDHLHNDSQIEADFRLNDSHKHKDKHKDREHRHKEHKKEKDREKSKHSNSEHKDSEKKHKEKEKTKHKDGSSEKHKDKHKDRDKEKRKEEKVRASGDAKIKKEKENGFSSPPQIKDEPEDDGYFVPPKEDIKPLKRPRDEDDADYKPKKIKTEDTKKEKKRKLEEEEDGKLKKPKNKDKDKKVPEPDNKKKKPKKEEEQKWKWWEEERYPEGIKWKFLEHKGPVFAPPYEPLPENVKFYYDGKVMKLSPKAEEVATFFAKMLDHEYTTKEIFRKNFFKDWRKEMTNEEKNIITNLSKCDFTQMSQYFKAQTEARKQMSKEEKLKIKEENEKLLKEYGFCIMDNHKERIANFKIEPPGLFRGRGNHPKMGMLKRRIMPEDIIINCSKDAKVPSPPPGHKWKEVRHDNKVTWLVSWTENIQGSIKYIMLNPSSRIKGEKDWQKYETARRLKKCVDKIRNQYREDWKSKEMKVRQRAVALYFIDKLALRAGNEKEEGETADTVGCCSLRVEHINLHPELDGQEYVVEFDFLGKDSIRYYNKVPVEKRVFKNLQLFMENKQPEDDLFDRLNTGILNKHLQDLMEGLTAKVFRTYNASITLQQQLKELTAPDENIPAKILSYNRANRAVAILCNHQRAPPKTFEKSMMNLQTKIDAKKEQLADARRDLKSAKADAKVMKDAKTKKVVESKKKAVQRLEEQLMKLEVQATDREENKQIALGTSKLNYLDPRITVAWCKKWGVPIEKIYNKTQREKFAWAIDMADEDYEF

Chain of UniProt P11388 (P11388 whole entry): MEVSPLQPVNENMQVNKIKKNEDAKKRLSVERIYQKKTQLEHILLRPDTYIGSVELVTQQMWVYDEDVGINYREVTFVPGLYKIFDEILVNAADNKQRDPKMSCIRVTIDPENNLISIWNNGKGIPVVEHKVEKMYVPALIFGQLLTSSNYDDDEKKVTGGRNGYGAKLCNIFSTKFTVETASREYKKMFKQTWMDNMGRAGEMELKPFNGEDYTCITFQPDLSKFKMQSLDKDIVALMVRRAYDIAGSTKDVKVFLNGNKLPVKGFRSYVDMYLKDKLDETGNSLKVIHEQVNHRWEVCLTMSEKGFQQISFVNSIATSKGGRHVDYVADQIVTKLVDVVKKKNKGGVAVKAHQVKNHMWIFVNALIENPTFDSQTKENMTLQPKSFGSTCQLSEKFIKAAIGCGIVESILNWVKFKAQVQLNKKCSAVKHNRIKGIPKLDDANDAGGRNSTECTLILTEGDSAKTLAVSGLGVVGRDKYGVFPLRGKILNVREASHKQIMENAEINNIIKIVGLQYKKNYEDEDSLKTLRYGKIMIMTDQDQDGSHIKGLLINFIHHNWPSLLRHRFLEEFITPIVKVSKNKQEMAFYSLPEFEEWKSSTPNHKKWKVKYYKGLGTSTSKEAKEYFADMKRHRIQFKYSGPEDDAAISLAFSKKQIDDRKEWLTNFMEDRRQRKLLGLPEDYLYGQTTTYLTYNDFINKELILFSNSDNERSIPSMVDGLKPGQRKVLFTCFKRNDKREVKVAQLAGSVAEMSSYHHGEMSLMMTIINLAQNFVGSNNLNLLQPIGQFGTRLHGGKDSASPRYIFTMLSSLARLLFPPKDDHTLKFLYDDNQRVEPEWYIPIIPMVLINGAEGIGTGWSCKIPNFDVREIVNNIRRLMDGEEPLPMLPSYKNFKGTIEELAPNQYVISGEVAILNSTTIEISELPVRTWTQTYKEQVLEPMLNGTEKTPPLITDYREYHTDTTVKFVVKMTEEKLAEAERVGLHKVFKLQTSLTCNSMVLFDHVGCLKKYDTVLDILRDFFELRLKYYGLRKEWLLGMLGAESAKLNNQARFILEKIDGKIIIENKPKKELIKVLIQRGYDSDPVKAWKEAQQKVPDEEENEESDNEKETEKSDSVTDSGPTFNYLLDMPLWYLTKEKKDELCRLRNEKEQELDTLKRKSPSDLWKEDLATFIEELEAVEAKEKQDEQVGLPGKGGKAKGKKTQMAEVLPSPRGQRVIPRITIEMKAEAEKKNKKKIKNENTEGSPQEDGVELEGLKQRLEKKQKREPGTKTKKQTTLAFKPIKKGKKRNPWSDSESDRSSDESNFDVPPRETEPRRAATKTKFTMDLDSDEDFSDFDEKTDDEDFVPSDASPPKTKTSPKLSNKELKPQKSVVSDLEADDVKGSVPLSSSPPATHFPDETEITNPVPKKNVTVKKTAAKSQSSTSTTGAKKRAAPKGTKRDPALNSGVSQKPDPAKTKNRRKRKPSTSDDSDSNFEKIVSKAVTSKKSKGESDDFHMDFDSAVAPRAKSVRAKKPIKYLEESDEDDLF

| Substance | PLA dots/cell (untreated cells) [1] [dots/cell] | PLA dots/cell (untreated cells) [2] [dots/cell] | PLA dots/cell (with Dox) [1] [dots/cell] | PLA dots/cell (with Dox) [2] [dots/cell] |
| --- | --- | --- | --- | --- |
| Endogenous MYC of U2OS cells (from UniProt P01106 1-454) (natural protein) | 60 | 60 |  |  |
| MYC-EGFP, doxycycline-inducible, in U2OS-MYC-EGFP cells (from UniProt P01106 1-454) (natural protein) |  |  | > 80 | > 80 |
